Data from patent US20230002478A1 (TWIST BIOSCIENCE, published 2023).
Where two headings read alike, the source gives them in different places.

B1: 5-1 (Fc fusion)
chain: EVQLVESGGGLVQPGGSLRLSCAASGGTFSSIGMGWFRQAPGKEREFVAAISWDGGATAYADSVKGRFTISADNSKNTAYLQMNSLKPEDTAVYYCAKEDVGKPFDWGQGTLVTVSS
B2: 6-63 (Fc fusion)
chain: EVQLVESGGGLVQPGGSLRLSCAASGQTFNMGWFRQAPGKEREFVAAIGSGGSTSYADSVKGRFTISADNSKNTAYLQMNSLKPEDTAVYYCWRLGNDYFDYWGQGTLVTVSS
B3: 6-3 (Fc fusion)
chain: EVQLVESGGGLVQPGGSLRLSCAASGFTFSPSWMGWFRQAPGKEREFVATINEYGGRNYADSVKGRFTISADNSKNTAYLQMNSLKPEDTAVYYCARVDRDFDYWGQGTLVTVSS
B4: 2-5 (antibody, V domains shown)
VH: EVQLLESGGGLVQPGGSLRLSCAASGFTFSDFAMAWVRQAPGKGLEWVSAISGSGDITYYADSVKGRFTISRDNSKNTLYLQMNSLRAEDTAVYYCAREADGLHSPWHFDLWGQGTLVTVSS
VL: DIQMTQSPSSLSASVGDRVTITCRASQSIHTYLNWYQQKPGKAPKLLIYAASALASGVPSRFSGSGSGTDFTLTISSLQPEDFATYYCQQSYSAPPYTFGQGTKVEIK
B5: 6-42 (Fc fusion)
chain: EVQLVESGGGLVQPGGSLRLSCAASGDTYGSYWMGWFRQAPGKEREFVAVITSGGSTNYADSVKGRFTISADNSKNTAYLQMNSLKPEDTAVYYCTHVQNSYYYAMDVWGQGTLVTVSS
B6: 2-2 (antibody, V domains shown)
VH: EVQLLESGGGLVQPGGSLRLSCAASGFTFSRHAMNWVRQAPGKGLEWVSGISGSGDETYYADSVKGRFTISRDNSKNTLYLQMNSLRAEDTAVYYCARDLPASYYDSSGYYWHNGMDVWGQGTLVTVSS
VL: DIQMTQSPSSLSASVGDRVTITCRASQTINTYLNWYQQKPGKAPKLLIYSASTLQSGVPSRFSGSGSGTDFTLTISSLQPEDFATYYCQQSYSTFTFGQGTKVEIK

Assays:
SARS-CoV-2 S1 [1] = biological target: T1, SARS-CoV-2 S1 (SARS-CoV-2, UniProt P0DTC2 16-685); experiment: SPR
T1 construct: range 16-685

[2] = biological target: T2, S1 domain of SARS-CoV S protein (SARS-CoV, UniProt P59594 14-667); experiment: SPR
T2 construct: domain: S1

SARS-CoV-2 S1 [3] = biological target: T1, SARS-CoV-2 S1; experiment: SPR; remark: listed apart in the source
[4] = biological target: T2, S1 domain of SARS-CoV S protein; experiment: cross-binding assay on the S1 domain of SARS-CoV S protein

Binder	Kd (SARS-CoV-2 S1 [1]) [nM]	binding result [2]	Kd (SARS-CoV-2 S1 [3]) [nM]	also measured
B1	6.6	–	–	–
B2	46	no binding	65	–
B3	32	no binding	11	–
B4	–	–	–	binding result [4]: binds
B5	–	–	–	binding result (SARS-CoV-2 S1 [1]): binds
B6	21	–	–	–
